According to patent US20040110688A1 (SAINT LOUIS UNIVERSITY, published 2004):

T1: factor VIIIa (human, UniProt P00451 20-2351)
T1 sequence (looked up): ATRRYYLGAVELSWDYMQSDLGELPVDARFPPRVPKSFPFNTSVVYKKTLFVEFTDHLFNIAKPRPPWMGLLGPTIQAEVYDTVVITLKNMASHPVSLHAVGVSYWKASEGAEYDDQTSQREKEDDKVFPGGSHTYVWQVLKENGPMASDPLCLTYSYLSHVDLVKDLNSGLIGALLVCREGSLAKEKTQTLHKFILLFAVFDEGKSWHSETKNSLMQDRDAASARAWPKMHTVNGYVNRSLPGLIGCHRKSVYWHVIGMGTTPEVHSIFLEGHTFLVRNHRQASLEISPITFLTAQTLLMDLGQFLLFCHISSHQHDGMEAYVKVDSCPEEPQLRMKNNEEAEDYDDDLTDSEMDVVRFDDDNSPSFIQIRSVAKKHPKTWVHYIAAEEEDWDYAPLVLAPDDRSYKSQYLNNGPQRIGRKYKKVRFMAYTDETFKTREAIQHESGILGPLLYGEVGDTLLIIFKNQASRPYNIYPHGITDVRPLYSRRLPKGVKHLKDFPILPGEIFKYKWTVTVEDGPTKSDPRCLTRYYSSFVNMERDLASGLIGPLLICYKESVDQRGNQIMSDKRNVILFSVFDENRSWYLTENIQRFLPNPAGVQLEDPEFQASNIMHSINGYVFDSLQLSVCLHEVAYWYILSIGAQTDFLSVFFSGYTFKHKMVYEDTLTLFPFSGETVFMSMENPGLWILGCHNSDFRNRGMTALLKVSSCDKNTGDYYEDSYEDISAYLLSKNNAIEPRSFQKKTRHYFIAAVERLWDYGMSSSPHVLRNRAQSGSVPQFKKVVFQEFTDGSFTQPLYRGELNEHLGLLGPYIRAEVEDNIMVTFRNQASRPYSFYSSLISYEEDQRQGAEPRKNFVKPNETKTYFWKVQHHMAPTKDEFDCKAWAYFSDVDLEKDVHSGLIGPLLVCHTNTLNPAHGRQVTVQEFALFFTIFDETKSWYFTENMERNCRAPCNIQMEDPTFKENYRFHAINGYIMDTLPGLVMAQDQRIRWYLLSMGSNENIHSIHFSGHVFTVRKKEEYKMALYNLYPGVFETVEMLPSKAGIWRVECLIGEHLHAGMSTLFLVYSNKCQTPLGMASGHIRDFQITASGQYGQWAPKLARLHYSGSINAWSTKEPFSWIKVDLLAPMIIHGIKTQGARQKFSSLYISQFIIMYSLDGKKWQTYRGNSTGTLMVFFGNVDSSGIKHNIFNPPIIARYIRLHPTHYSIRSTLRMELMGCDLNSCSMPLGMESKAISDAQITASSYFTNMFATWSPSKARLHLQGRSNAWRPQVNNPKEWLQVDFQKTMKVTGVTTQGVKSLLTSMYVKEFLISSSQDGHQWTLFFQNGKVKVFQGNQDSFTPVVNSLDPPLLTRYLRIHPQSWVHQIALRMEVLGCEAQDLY

B1: P-4488 SEQ ID NO: 2 (DRAT) (peptide)
peptide: DRAT
B2: EGF1 Domain (other, UniProt P00740 93-131, looked up)
chain: DGDQCESNPCLNGGSCKDDINSYECWCPFGFEGKNCELD
notes: domain: EGF1 Domain
B3: P-4351 SEQ ID NO: 6 (LVDRAT) (peptide)
peptide: LVDRAT
B4: P-4352 SEQ ID NO: 7 (LVYRAT) (peptide)
peptide: LVYRAT
B5: P-4353 SEQ ID NO: 8 (LVDQAT) (peptide)
peptide: LVDQAT
B6: P-4354 (TKVSRYVN) (peptide)
peptide: TKVSRYVN

target: T1, factor VIIIa; assay: Kd from the peptide competition assay (factor X activation by IXa with VIIIa and phospholipid)

Q: B1 was tested. Which Kd did it give?
A: 44.9 µM

Q: B2 was tested. Which Kd did it give?
A: 6 µM

Q: For B3, which Kd is on record?
A: 0.35 µM

Q: For B4, which Kd is on record?
A: 6.6 µM

Q: How did the Kd turn out when B5 was run?
A: 4.7 µM

Q: With B6 as the binder, how does the Kd read?
A: 1 µM

target: T1, factor VIIIa; assay: peptide competition assay: inhibition of factor X activation by IXa with VIIIa and phospholipid
Experimental: Each reaction was incubated for either 30, 60, 90, or 120 seconds and the reaction was stopped by adding 1.5 μL of 0.5 M EDTA and placed on ice. Forty μL of each reaction was added to 100 μL of TBS/BSA in a 96 well microtiter plate and S-2222 (Bz-Ile-Glu(γ-OR)-Gly-Arg-p-nitroanilide) was added to a final concentration of 100 μM.

Q: How did the IC50 turn out when B1 was run?
A: 89.8 µM

Q: How did the IC50 turn out when B2 was run?
A: 12 µM

Q: B3 was tested. Which IC50 did it give?
A: 0.7 µM

Q: Which IC50 does the source give for B4 here?
A: 13.2 µM

Q: B5 was tested. Which IC50 did it give?
A: 9.3 µM
